The values that follow come from article PMC2702275, “TIPT2 and geminin interact with basal transcription factors to synergize in transcriptional regulation”.

In data set [1] the target is GST-TIPT2 (TATA-binding protein-like factor-interacting protein, isoform 2) (mouse) (UniProt Q6P926).
For data set [2], the target named is T1, GST-TIPT2 (TIPT isoform 2) (mouse, UniProt Q6P926 1-205).
T1 sequence: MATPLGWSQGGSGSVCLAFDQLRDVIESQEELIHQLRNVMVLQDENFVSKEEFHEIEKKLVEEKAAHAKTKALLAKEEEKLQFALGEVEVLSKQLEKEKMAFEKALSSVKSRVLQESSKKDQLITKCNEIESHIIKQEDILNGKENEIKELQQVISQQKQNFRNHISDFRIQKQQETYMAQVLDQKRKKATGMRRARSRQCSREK
To be noted: protein: recombinant; tags: N-terminal GST.

Data set [3] addresses T1, GST-TIPT2 (TIPT isoform 2). To be noted: protein: recombinant, tags: N-terminal GST.
Data set [4] has as its target T2, TBP (human, UniProt P20226 1-339). To be noted: protein: recombinant.
Data set [5] has as its target T1, GST-TIPT2 (TIPT isoform 2). To be noted: protein: recombinant; tags: N-terminal GST; label: radiolabel.
For data set [6], the target named is T2, TBP. To be noted: protein: recombinant; label: radiolabel.

Read-outs that look alike come from different tables or passages of the source.

T2 sequence (P20226 whole entry, canonical isoform): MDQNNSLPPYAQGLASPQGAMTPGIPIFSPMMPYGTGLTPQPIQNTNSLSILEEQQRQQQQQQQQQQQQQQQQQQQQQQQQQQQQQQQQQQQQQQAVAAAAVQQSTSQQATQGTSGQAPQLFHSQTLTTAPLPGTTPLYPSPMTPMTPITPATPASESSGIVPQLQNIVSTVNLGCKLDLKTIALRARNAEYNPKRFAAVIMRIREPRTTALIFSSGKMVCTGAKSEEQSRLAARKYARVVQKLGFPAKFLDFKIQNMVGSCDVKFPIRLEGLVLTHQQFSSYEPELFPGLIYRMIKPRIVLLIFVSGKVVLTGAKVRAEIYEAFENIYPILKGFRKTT

As for “in vitro translated geminin (from UniProt O88513 1-206) (natural protein)”, in data set [1], the luciferase reporter in U2OS cells: activation of the AdMLP, co-transfection of geminin with TIPT2 is 11 fold; the luciferase reporter in U2OS cells: activation of the AdMLP, triple transfection of TBP, TIPT2 and geminin came to 16 fold.

B1: AdMLPm5 (dsDNA)
DNA 1: AAGGGGGGTGATAAAAGGGGGTGGG
DNA 2: CCCACCCCCTTTTATCACCCCCCTT
B1: the binding result in data set [2] is “binds”.

B2: AdMLPm9 (dsDNA)
DNA 1: AAGGGGGGCTATAAAAGGGGGTTTT
DNA 2: AAAACCCCCTTTTATAGCCCCCCTT
Turning to B2, the binding result in data set [3] is “binds”.

B3: AdMLPm7 (dsDNA)
DNA 1: AAGGGGGGCTATAAAAGGTTGTGGG
DNA 2: CCCACAACCTTTTATAGCCCCCCTT
For the molecule B3, the binding result in data set [3] was “binds”.

B4: AdMLP (-40 to -16) (dsDNA)
DNA 1: AAGGGGGGCTATAAAAGGGGGTGGG
DNA 2: CCCACCCCCTTTTATAGCCCCCCTT
Take B4: the binding result (in the data set with TBP [4]; in data set [3]) was “binds” each time.

B5: AdMLPm2 (dsDNA)
DNA 1: AATTGGGGCTATAAAAGGGGGTGGG
DNA 2: CCCACCCCCTTTTATAGCCCCAATT
On to B5, for which, in data set [3], the binding result is recorded as “binds”.

B6: AdE4 (dsDNA)
DNA 1: GATCCGGAGTATATATAGGACCTTG
DNA 2: CAAGGTCCTATATATACTCCGGATC
For B6, the binding result was “binds” in the data set with TBP [4] (label: radiolabel) and “no binding” in data set [5].

B7: AdMLPm6 (dsDNA)
DNA 1: AAGGGGGGCTATAAAATTGGGTGGG
DNA 2: CCCACCCAATTTTATAGCCCCCCTT
B7: the binding result in data set [3] is on record as “binds”.

B8: AdMLPm8 (dsDNA)
DNA 1: AAGGGGGGCTATAAAAGGGGTGGGG
DNA 2: CCCCACCCCTTTTATAGCCCCCCTT
For the molecule B8, in data set [3], the binding result was “binds”.

B9: AdMLPm1 (dsDNA)
DNA 1: AAGGGGGGCTGTAAAAGGGGGTGGG
DNA 2: CCCACCCCCTTTTACAGCCCCCCTT
B9: the values for the binding result (with TBP [6]; in data set [3] (label: radiolabel)) were “no binding” and “binds”, respectively.

B10: AdMLPm4 (dsDNA)
DNA 1: AAGGGGTTCTATAAAAGGGGGTGGG
DNA 2: CCCACCCCCTTTTATAGAACCCCTT
For B10, the binding result in data set [3] is “binds”.
